Measurements: patent US20220259593A1, “CONTROL OF MAMMALIAN GENE DOSAGE USING CRISPR” (The Regents of the University of California, priority 2019, published 2022)

B1: cr605 (nucleic acid)
guide: GTTTAAGAGCTAAGCTGGAAACAGCATAGCAAGTTTAAATAAGGATATTCCGTTATCAACTTGAAAAAGTGGCACCCAGTGGGTGCT
modifications: listed as DNA, chemistry not fully specified
B2: cr683 (nucleic acid)
guide: GTTTAAGAGCTAAGCTGGAAACAGCATAGCAAGTTTAAATAAGGCTAGTTCGTTATGAACTTGAAAAAGTGGCACCGAGTCGGTGCT
modifications: listed as DNA, chemistry not fully specified
B3: cr075 (nucleic acid)
guide: GTTTCATAGCTAAGCTGGAAACAGCATAGCAAGTTTAAATAAGGCTAGTCCGTTATCAACTTGAAAAAGTGGCACCGAGTCGGTGCT
modifications: listed as DNA, chemistry not fully specified
B4: cr798 (nucleic acid)
guide: GTTTAAGAGCTAAGCTGGAAACAGCATAGCAAGTTTAAATAAGGATATTCCGTTATCAACTTGAAAAAGTGGCATCCAGTGGATGCT
modifications: listed as DNA, chemistry not fully specified
B5: cr691 (nucleic acid)
guide: GTTTAAGAGCTAAGCTGGAAACAGCATAGCAAGTTTAAATAAGGCTAGTCCGTTATCAACTTGAAAAAGTGGGCCCGAGTCGGGCCT
modifications: listed as DNA, chemistry not fully specified
B6: cr447 (nucleic acid)
guide: GTTTAAGAGCTAAGCTGGAAACAGCATAGCAAGCTTAAATAAGGCTAGTCCGTTATCAACTTGAAAAAGTGGCACCAAGTTGGTGCT
modifications: listed as DNA, chemistry not fully specified
B7: cr228 (nucleic acid)
guide: GTTTAAGAGCTAAGCTGGAAACAGCATAGCAAGTTTAAATAAGGGTAGTCCGTTATCAACTTGAAAAAGTGGCACCGAGTCGGTGCT
modifications: listed as DNA, chemistry not fully specified
B8: cr618 (nucleic acid)
guide: GTTTAAGAGCTAAGCTGGAAACAGCATAGCAAGTTTAAGTAAGGCTAGTCCGTTATCAACTTGAAAAAGTGGCACCGAGTCGGTGCT
modifications: listed as DNA, chemistry not fully specified
B9: cr390 (nucleic acid)
guide: GTTTAAGAGCTAAGCTGGAAACAGCATAGCAAATTTAAATAAGGCTAGTCCGTTATCAACTTGAAAAAGTAGCACCGAGTCGGTGCT
modifications: listed as DNA, chemistry not fully specified
B10: cr761 (nucleic acid)
guide: GTTTAAGAGCTAAGCTGGAAACAGCATAGCTAGTTTAAATAAGGCTAGTCCGTTGTCTACTTGAAAAAGTGGCACCGAGTCGGTGCT
modifications: listed as DNA, chemistry not fully specified
B11: cr979 (nucleic acid)
guide: GTTTAAGAGCTAAGCTGGAAACAGCATAGCAAGTTTAAATAAGGCTAGTCCGGTATCTACTTGAAAAAGTGGCACCGAGTCGGTGCT
modifications: listed as DNA, chemistry not fully specified
B12: cr560 (nucleic acid)
guide: GTTTAAGAGCTAAGCTGGAAACAGCATAGCAAGCTTAAATAAGGCTAGTCCGTTATCAACTTGAAAAAGTGGCACTGAGTCAGTGCT
modifications: listed as DNA, chemistry not fully specified
B13: cr502 (nucleic acid)
guide: GTTTAAGAGCTAAGCTGGAAACAGCATAGCAAGTTTAAATAAGGCTAGTCCGTTATCAACTTGAAAAAGTGGCACCGAGTCGCTGCT
modifications: listed as DNA, chemistry not fully specified
B14: cr812 (nucleic acid)
guide: GTTTAAGAGCTAAGCTGGAAACAGCATAGCAAGTTTAAATAAGGCTACTCCGTTATCAACTTGAAAAAGTGGCACCGAGTCGGTGCT
modifications: listed as DNA, chemistry not fully specified
B15: cr091 (nucleic acid)
guide: GTTTTACAGCTAAGCTGGAAACAGCATAGCAAGTTTAAATAAGGCTAGTCCGTTATCAACTTGAAAAAGTGGCACCGAGTCGGTGCT
modifications: listed as DNA, chemistry not fully specified
B16: cr311 (nucleic acid)
guide: GTTTAAGAGCTAAGCTGGAAACAGCATAGCAAGTTTAAATAAGGCTTGTCCGTTATATACTTGAAAAAGTGGCACCGAGTCGGTGCT
modifications: listed as DNA, chemistry not fully specified
B17: cr221 (nucleic acid)
guide: GTTTAAGAGCTAAGCTGGAAACAGCATAGCAAATTTAAATAAGGCTAGTCCGTTATGAACTTGAGAAAGTGGCACCGAGTCGGTGCT
modifications: listed as DNA, chemistry not fully specified
B18: cr063 (nucleic acid)
guide: ATTTTAGAGCTAAGCTGGAAACAGCATAGCAAGTTTAAATAAGGCTAGTCCGTTATCAACTTGAAAAAGTGGCACCGAGTCGGTGCT
modifications: listed as DNA, chemistry not fully specified
B19: cr229 (nucleic acid)
guide: GTTTAAGAGCTAAGCTGGAAACAGCATAGCAAGTTTAAATACGGCTAGTCCGTTATCAACTTGAAAAAGTGGCACCGAGTCGGTGCT
modifications: listed as DNA, chemistry not fully specified
B20: cr808 (nucleic acid)
guide: GTTTAAGAGCTAAGCTGGAAACAGCATAGCAAGTTTAAATAAAGCTAGTCTGTTATCAAATTGAAAAATTGTCACCGAGTCGGTGAT
modifications: listed as DNA, chemistry not fully specified
B21: cr029 (nucleic acid)
guide: GTTTCAGGGCTAAGCTGGAAACAGCATAGCAAGTTTAAATAAGGCTAGTCCGTTATCAACTTGAAAAAGTGGCACCGAGTCGGTGCT
modifications: listed as DNA, chemistry not fully specified
B22: cr185 (nucleic acid)
guide: GTTTAAGAGCTAAGCTGGAAACAGCATAGCAAGTTTAAATAAGGCTAGTCCGTTATCAACTTGAAAAAGTGGCACCGAGTAGGTGCT
modifications: listed as DNA, chemistry not fully specified
B23: cr544 (nucleic acid)
guide: GTTTAAGAGCTAAGCTGGAAACAGCATAGCAACTTTAAATAAGGCTAGTCCGTTATCAACTCGAAAGAGTGGCACCGAGTCGGTGCT
modifications: listed as DNA, chemistry not fully specified
B24: cr826 (nucleic acid)
guide: GTTTAAGAGCTAAGCTGGAAACAGCATAGCAATTTTAAATAAGGCTAGCCCGTTTTCAACTTGAAAAAGTGGCACCGAGTCGGTGCT
modifications: listed as DNA, chemistry not fully specified
B25: cr230 (nucleic acid)
guide: GTTTAAGAGCTAAGCTGGAAACAGCATAACAAGTTTAAATAAGGCTAGTCCATTATCAACTTGAACAAGTGGCACCGAGTCGGTGCT
modifications: listed as DNA, chemistry not fully specified
B26: cr881 (nucleic acid)
guide: GTTTAAGAGCTAAGCTGGAAACAGCATAGCAAGTTTAAATAAGGCTAGTCCTTTAACAACTTGAAAAAGTGGCACCGAGTCGGTGCT
modifications: listed as DNA, chemistry not fully specified
B27: cr047 (nucleic acid)
guide: GTTTTAGTGCTAAGCTGGAAACAGCATAGCAAGTTTAAATAAGGCTAGTCCGTTATCAACTTGAAAAAGTGGCACCGAGTCGGTGCT
modifications: listed as DNA, chemistry not fully specified
B28: cr395 (nucleic acid)
guide: GTTTAAGAGCTAAGCTGGAAACAGCATAGCAAGTTTAAATATGGCTAGTCCGTTATCAACTTGAAAAAGTAGCACCGAATCGGTGCT
modifications: listed as DNA, chemistry not fully specified
B29: cr476 (nucleic acid)
guide: GTTTAAGAGCTAAGCTGGAAACAGCATAGCAAGTTTAAATAAGGCTAGTCCGTTATCAACTTGAAAAAGTGCGACCGAGTCGGTCGT
modifications: listed as DNA, chemistry not fully specified
B30: cr452 (nucleic acid)
guide: GTTTAAGAGCTAAGCTGGAAACAGCATAGCAAATTTAAATAAGGCTAGTCCGTTATAAACTTGAAAAAGTGGCACCGAGTCGGTGCT
modifications: listed as DNA, chemistry not fully specified

Tested on: K562 CRISPRi cells
Test: Constant region variant library pooled growth screen, K562
Assay type: cell-based, human
Details: sgRNA constant region variants
Method in brief: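 Cells were selected with puromycin for 2 days and then kept in RPMI-1640 spinner cultures, with duplicates handled separately. Targeting sequences comprised 3 sgRNAs per essential gene for 10 genes plus six non-targeting controls. Activities were normalized against pairing with the unmodified scaffold.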

[1] = activity relative to the unmodified constant region cr995
[2] = activity relative to the original, un-modified constant region cr995

| Molecule | Mean relative activity [1] | Mean relative activity [2] |
| --- | --- | --- |
| B1 | 0.1839 |  |
| B2 | 0.1568 |  |
| B3 | 0.1521 |  |
| B4 | 0.1361 |  |
| B5 |  | 1.038 |
| B6 | 0.1616 |  |
| B7 | 0.1424 |  |
| B8 | 0.1571 |  |
| B9 | 0.1354 |  |
| B10 | 0.1369 |  |
| B11 | 0.1765 |  |
| B12 | 0.1347 |  |
| B13 | 0.1485 |  |
| B14 | 0.1766 |  |
| B15 | 0.1366 |  |
| B16 | 0.179 |  |
| B17 | 0.1553 |  |
| B18 | 0.1565 |  |
| B19 | 0.1478 |  |
| B20 | 0.1417 |  |
| B21 | 0.1663 |  |
| B22 | 0.1755 |  |
| B23 | 0.1605 |  |
| B24 | 0.1633 |  |
| B25 | 0.1598 |  |
| B26 | 0.1367 |  |
| B27 | 0.1686 |  |
| B28 | 0.1397 |  |
| B29 |  | 1.039 |
| B30 | 0.1813 |  |
